Measured values reported in the supplement of paper PMC7125110.
± gives the standard error. This sample holds only a part of the variants without activity.

B1: glmS ribozyme (parent)
chain: AUAAAAGCGCCAGAACUACAGAAAUGUAGUUGACGAGGAGGAGGUUUAUCGAAUUUUCGGCGGAUGCCUCCAAA

What was measured:
Conditions in all cases: with glucosamine-6-phosphate
[1] = variants of: B1; experiment: self-cleavage kobs at 640 uM GlcN6P; higher = faster cleavage; RNA array
In short: (§1)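 kcat and KM were obtained from weighted Michaelis–Menten fits across concentrations of kobs values. Those came from one- or two-exponential decay fits to per-tile medians normalised to baseline and to non-cleaving reference variants. The variants were barcoded ribozymes transcribed in situ by E. coli RNA polymerase on sequenced MiSeq chips and tracked through a hybridised Cy3 probe at 37 °C, with 40 μM to 10 mM glucosamine-6-phosphate in HEPES/KCl/Mg(OAc)2 buffer flowed in.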

[2] = variants of: B1; experiment: self-cleavage kobs at 2500 uM GlcN6P; higher = faster cleavage; RNA array
In short: as §1

[3] = variants of: B1; experiment: self-cleavage kobs at 10000 uM GlcN6P; higher = faster cleavage; RNA array
In short: as §1

Variant	self-cleavage kobs at 640 uM GlcN6P [1]	self-cleavage kobs at 2500 uM GlcN6P [2]	self-cleavage kobs at 10000 uM GlcN6P [3]
C11U C58A A64C	< 1e-05 s⁻¹	–	–
C11G U45C C50G	< 1e-05 s⁻¹	< 1e-05 s⁻¹	–
A12C A14U U30A U69G	9e-05 ± 3.5e-05 s⁻¹	–	–
C11A G63A C67A U69C	< 1e-05 s⁻¹	–	–
G13U A36G U47C	< 1e-05 s⁻¹	–	–
C11G U31G G35C C71U	< 1e-05 s⁻¹	< 1e-05 s⁻¹	–
G13A A53C	4.8e-05 ± 1.4e-05 s⁻¹	3.79e-05 ± 1.2e-05 s⁻¹	0.000139 ± 1.3e-05 s⁻¹
A14C G41C G44C C50G	< 1e-05 s⁻¹	–	–
A14G A36U G41A	< 1e-05 s⁻¹	< 1e-05 s⁻¹	< 1e-05 s⁻¹
C11A C50U G59C	< 1e-05 s⁻¹	< 1e-05 s⁻¹	–
C11G A64U	< 1e-05 s⁻¹	< 1e-05 s⁻¹	–
C11U U31A A53U C70G	0.000209 ± 6.9e-05 s⁻¹	0.000251 ± 8.4e-05 s⁻¹	–
C10A A14C C67U C68A	0.0002 ± 7e-05 s⁻¹	–	–
A14C U30C G38U A39U A53U U55G	< 1e-05 s⁻¹	< 1e-05 s⁻¹	–
C10G C58U G63U	< 1e-05 s⁻¹	–	–
C11U A12C G13U G38U U56A C71U	< 1e-05 s⁻¹	< 1e-05 s⁻¹	–
C11A C16G U57A C58G A64U	< 1e-05 s⁻¹	< 1e-05 s⁻¹	–
C10U A14G U69A	4.59e-05 ± 2.2e-05 s⁻¹	4.32e-05 ± 1.9e-05 s⁻¹	–
G13A G51U	< 1e-05 s⁻¹	< 1e-05 s⁻¹	< 1e-05 s⁻¹
G13C A39G U57C A64U C67U C70U	< 1e-05 s⁻¹	–	–
C10A C58U G63A A64U	< 1e-05 s⁻¹	< 1e-05 s⁻¹	–

Variant	self-cleavage kobs at 640 uM GlcN6P [1]	self-cleavage kobs at 2500 uM GlcN6P [2]	self-cleavage kobs at 10000 uM GlcN6P [3]
G13U G60U C70U	< 1e-05 s⁻¹	–	–
A12C G41U U46G	8.69e-05 ± 1.8e-05 s⁻¹	7.37e-05 ± 2.8e-05 s⁻¹	–
G13C A14U G40U G51C A53G U54A	< 1e-05 s⁻¹	–	–
C11G U31G A39C G41C	< 1e-05 s⁻¹	< 1e-05 s⁻¹	–
A12U U31G U45G A53U	0.00024 ± 6.1e-05 s⁻¹	0.00101 ± 0.00033 s⁻¹	–
C11U U65G C67G	0.000877 ± 0.00023 s⁻¹	–	0.000136 ± 2.6e-05 s⁻¹
A12U A15C A48G A52U G66A C70G	< 1e-05 s⁻¹	–	–
C11G C50G C61U	7.22e-05 ± 3.5e-05 s⁻¹	6.44e-05 ± 2.1e-05 s⁻¹	–
A12U A36C C68G	0.000173 ± 5.8e-05 s⁻¹	–	–
C10A C16U C68A	0.000489 ± 0.00017 s⁻¹	–	–
A12C A15C U30G U49G G59A A64G	< 1e-05 s⁻¹	< 1e-05 s⁻¹	–
C10U G32C G62U	< 1e-05 s⁻¹	< 1e-05 s⁻¹	–
C11A A33C A39G U45G	< 1e-05 s⁻¹	< 1e-05 s⁻¹	–
A12U A15G A42U	0.000151 ± 4.6e-05 s⁻¹	–	–
A12C C16G A42G G44C U45G U46A C61A G62C	< 1e-05 s⁻¹	< 1e-05 s⁻¹	–
C10G G40A C70U	< 1e-05 s⁻¹	< 1e-05 s⁻¹	–
C10U C11A G43A C68G C70U	< 1e-05 s⁻¹	–	–
C10U U30C G40U U55C G60A C71U	< 1e-05 s⁻¹	–	–
A12U A48C G51U C71U	< 1e-05 s⁻¹	–	–
C10G G38U U49G C58G A64C U65A C67U C68U	0.000308 ± 8.3e-05 s⁻¹	–	–
A12U G13A G29A U45G	< 1e-05 s⁻¹	< 1e-05 s⁻¹	–

Variant	self-cleavage kobs at 640 uM GlcN6P [1]	self-cleavage kobs at 2500 uM GlcN6P [2]	self-cleavage kobs at 10000 uM GlcN6P [3]
A12U U56A C58G	0.000155 ± 2.6e-05 s⁻¹	0.000526 ± 9e-05 s⁻¹	–
A12U C16U A42U	0.000196 ± 4.1e-05 s⁻¹	–	–
C11A G13U C58A G62C	< 1e-05 s⁻¹	–	–
C10A G51A	< 1e-05 s⁻¹	–	< 1e-05 s⁻¹
A12C G32U	5.84e-05 ± 2.3e-05 s⁻¹	8.84e-05 ± 1.6e-05 s⁻¹	0.000265 ± 5e-05 s⁻¹
C11G A53C G59U U69A	< 1e-05 s⁻¹	–	–
A12C U31C A48C A52U	< 1e-05 s⁻¹	< 1e-05 s⁻¹	–
C11A G41A U49G G63U	< 1e-05 s⁻¹	< 1e-05 s⁻¹	–
A12U G32C U47G C70A	0.0007 ± 0.00018 s⁻¹	–	–
A12C A14C G32A G44C C70G	< 1e-05 s⁻¹	< 1e-05 s⁻¹	–
C11G A12G U45G U47A C71G	< 1e-05 s⁻¹	< 1e-05 s⁻¹	–
C10G C61G A64U	< 1e-05 s⁻¹	< 1e-05 s⁻¹	–
A12G A14U A15U C71A	6.44e-05 ± 1.9e-05 s⁻¹	7.44e-05 ± 1.8e-05 s⁻¹	–
A12U A15G C67A	0.00125 ± 0.00035 s⁻¹	0.00634 ± 0.0023 s⁻¹	–
A14C G29A G35A G59A	< 1e-05 s⁻¹	< 1e-05 s⁻¹	–
A14C A36U A42G	< 1e-05 s⁻¹	< 1e-05 s⁻¹	< 1e-05 s⁻¹
C10U U46A U56C	< 1e-05 s⁻¹	< 1e-05 s⁻¹	–
A12C G32U A64G C70U	< 1e-05 s⁻¹	–	–
C11U A15U G38U G41U U57A	< 1e-05 s⁻¹	< 1e-05 s⁻¹	–
C11G A42U G51U G62C	< 1e-05 s⁻¹	< 1e-05 s⁻¹	–
